Results on 52 sequences are retold here after the supplement of paper PMC10567573.

The series can be described thus: protein stability index of a GFP-peptide fusion (GPS, HEK-293T) (PSI 1-6); higher = more stable. To be noted: c terminus: a fixed tail appended.

± gives the standard deviation.
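Also: 24-mer peptide tiles fused after GFP, lentivirally expressed, FACS-sorted into six equal bins by GFP/DsRed ratio, decoded by Illumina sequencing, PSI is the read-weighted mean bin number.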

On to CINIPGSYVCRCKQGYILNSDQTT [MATN2], for which the protein stability index was found to be 2.43 ± 0.17 (treatment: DMSO) and 2.4 ± 0.35 (treatment: MLN4924 1 uM, 8 h).
For CKLQEQLEATVKKLEESKQLLKNN [SASS6], the protein stability index by setting is: (treatment: DMSO) 3.7 ± 0.15; (treatment: MLN4924 1 uM, 8 h) 3.47 ± 0.26.
The like results for CLPAGPRVYFLKGGYETFYSEYPE [DUSP5] were, in that order, 2.29 ± 0.22 and 2.28 ± 0.31.
The like results for CMCTVGERLYVIGGNHFRGTSDYD [KLHL13] were, in that order, 1.95 ± 0.17 and 2.38 ± 0.23.
The like results for CMFQEHKNHSTVTVEEAKAEKETE [TRIM29] were, in that order, 5.52 ± 0.22 and 5.36 ± 0.24.
As to CMSIVTSMTAGVSEREANDALNAY [INTS3], the protein stability index turned out to be 3.41 ± 0.3 (treatment: DMSO) and 3.49 ± 0.21 (treatment: MLN4924 1 uM, 8 h).
With CPLTPGPGKALGPAATMAVELHYE [C2CD2L], the protein stability index was determined as 3.67 ± 0.14 (treatment: DMSO) and 3.76 ± 0.28 (treatment: MLN4924 1 uM, 8 h).
With CPVWDIFDSDWYTSRNLIGGADII [RHOBTB3], the protein stability index runs as follows: (treatment: DMSO) 3.26 ± 0.5; (treatment: MLN4924 1 uM, 8 h) 3.55 ± 0.26.
The like results for CRKWNQMMYSAELWRYRTITFSGR [FBXO39] were, in that order, 2.41 ± 0.28 and 2.15 ± 0.37.
For the sequence CRLGYGCGYEGCRYGCGHRGCGDG [KRTAP19-2], the protein stability index is 3.01 ± 0.46 (treatment: DMSO) and 3.11 ± 0.41 (treatment: MLN4924 1 uM, 8 h).
Regarding CRVPNSGKDEIEAAVKAAREAFPS [ALDH8A1], the protein stability index reads like this: (treatment: DMSO) 4.65 ± 0.27; (treatment: MLN4924 1 uM, 8 h) 4.54 ± 0.36.
For the sequence CSELNKLCQHFEAVHSGTPVTNNL [SPACA9], the protein stability index is 2.95 ± 0.47 (treatment: DMSO) and 2.97 ± 0.24 (treatment: MLN4924 1 uM, 8 h).
Regarding CSLYENDCIFDKFECAWNGSDSVI [PPP2R2C], the protein stability index was 2.21 ± 0.17 (treatment: DMSO) and 2.17 ± 0.15 (treatment: MLN4924 1 uM, 8 h).
The like results for CSNSQEHGAHKHHPIEEAAEEHRE [TRIM43] were, in that order, 5.51 ± 0.34 and 5.37 ± 0.27.
With CTGTEAHISSCKLGPQVSLDPMKN [LOXL2], the protein stability index turned out to be 3.5 ± 0.29 (treatment: DMSO) and 3.81 ± 0.11 (treatment: MLN4924 1 uM, 8 h).
CVPVFANMSREPFSTRALVLSILH [SOAT2] registered a protein stability index (treatment: DMSO) of 2.22 ± 0.21 and a protein stability index (treatment: MLN4924 1 uM, 8 h) of 2 ± 0.22.
As for CYDPKGDQWNILQTPILEGRSGPG [KLHL14], the protein stability index was 2.53 ± 0.31 (treatment: DMSO) and 2.77 ± 0.43 (treatment: MLN4924 1 uM, 8 h).
Regarding DAFPVHRVMMASASDYFKAMFTGG [KLHL13], the protein stability index came to 2.21 ± 0.38 (treatment: DMSO) and 2.26 ± 0.23 (treatment: MLN4924 1 uM, 8 h).
The like results for DARIGEAEAKRDAGIREAKAKQEK [FLOT1] were, in that order, 5.5 ± 0.19 and 5.37 ± 0.19.
The like results for DCARRILAREGVAAFYKGYVPNML [SLC25A25] were, in that order, 2.12 ± 0.11 and 2.11 ± 0.29.
As to DCMSRELVSLTSRNPDQRKESLCI [FBXO34], the protein stability index is, setting by setting: (treatment: DMSO) 3.93 ± 0.57; (treatment: MLN4924 1 uM, 8 h) 4.11 ± 0.32.
The like results for DDLETMPDDLLTTLDDTCDLFAPL [ATF4] were, in that order, 5.01 ± 0.088 and 5.08 ± 0.16.
The like results for DEEKQEYLNEYEAEKIEYNESMKA [SMARCE1] were, in that order, 5.5 ± 0.17 and 5.05 ± 0.36.
The like results for DEKEQLIIPQVPLFNILAKFNGIT [USP39] were, in that order, 2.54 ± 0.3 and 2.57 ± 0.31.
For the sequence DFDDEKILIQHQKAKHFKCHICHK [ZNF207], the protein stability index is, setting by setting: (treatment: DMSO) 2.85 ± 0.31; (treatment: MLN4924 1 uM, 8 h) 3.31 ± 0.19.
Consider DGAAYIGNFDWVGNDFTQNAGTGL [PLD5], for which the protein stability index is 3.3 ± 0.49 (treatment: DMSO) and 3.44 ± 0.14 (treatment: MLN4924 1 uM, 8 h).
Turning to DGMSGLAGVGLSGGAAGAGWCIFV [ELAVL3], the protein stability index reads like this: (treatment: DMSO) 2.83 ± 1.1; (treatment: MLN4924 1 uM, 8 h) 2.69 ± 0.98.
Consider DGTSPLNTVERYNPQENRWHTIAP [KLHL20], for which the protein stability index was determined as 4.12 ± 0.26 (treatment: DMSO) and 4.26 ± 0.35 (treatment: MLN4924 1 uM, 8 h).
The like results for DGVKESTESSNTTIEDEDVKARKQ [CAMK2D] were, in that order, 5.59 ± 0.15 and 5.74 ± 0.09.
For the sequence DHFQKFLPTVGGQLGTAGQGFSYS [MYOZ1], the protein stability index amounted to 2.81 ± 0.13 (treatment: DMSO) and 2.79 ± 0.27 (treatment: MLN4924 1 uM, 8 h).
The like results for DHMRKKQHRKINPKNREYDRFYVI [ZNF277] were, in that order, 2.21 ± 0.29 and 2.03 ± 0.28.
The like results for DKAMKKDGLVGMAIVGGMALGVAG [FIS1] were, in that order, 2.89 ± 0.16 and 2.67 ± 0.12.
Turning to DKEGPSPKVEYVWRNIILMSLLHL [SCD], the protein stability index is, setting by setting: (treatment: DMSO) 3.11 ± 0.69; (treatment: MLN4924 1 uM, 8 h) 3.12 ± 0.4.
On to DKEVRAASTEADKRLSRFDIEMSM [NLN], for which the protein stability index by setting is: (treatment: DMSO) 4.39 ± 0.32; (treatment: MLN4924 1 uM, 8 h) 4.74 ± 0.32.
The like results for DKQRKANESKGTRESWDSAKKLPP [ELOA2] were, in that order, 5.11 ± 0.19 and 5.06 ± 0.19.
As to DKTPVLLTDYPVDLDEIAYFTWAS [MYORG], the protein stability index by setting is: (treatment: DMSO) 2.64 ± 0.36; (treatment: MLN4924 1 uM, 8 h) 2.86 ± 0.4.
The like results for DLDAWSILIREAQNQPIDKARKTY [CSTF3] were, in that order, 2.8 ± 0.34 and 3.04 ± 0.66.
The like results for DLSRLVNCLTGEGEDTRLSASEMK [CIB1] were, in that order, 3.5 ± 0.38 and 3.86 ± 0.28.
With DNARLAVDDFRLKYENELALRQSV [KRT13], the protein stability index reads like this: (treatment: DMSO) 3.92 ± 0.14; (treatment: MLN4924 1 uM, 8 h) 3.86 ± 0.18.
The like results for DQEEIKTLERYMCSRFFIDFPDIL [TENT5C] were, in that order, 2.45 ± 0.16 and 2.56 ± 0.33.
The like results for DQFLEDVRLQERTSGGLLSEAPNE [NOP53] were, in that order, 5.23 ± 0.13 and 5.38 ± 0.31.
In the case of DQYSYSSLVMGSQTESALSKKLRA [LCOR], the protein stability index came to 3.63 ± 0.12 (treatment: DMSO) and 3.54 ± 0.27 (treatment: MLN4924 1 uM, 8 h).
Take DRDKRDFVSAGAAAGVAAAFGAPI [CLCN6]: the protein stability index stood at 4.12 ± 0.096 (treatment: DMSO) and 4.24 ± 0.19 (treatment: MLN4924 1 uM, 8 h).
The like results for DRDREEEENRLREELRQEWEAKQE [FAM50A] were, in that order, 5.45 ± 0.5 and 5.63 ± 0.16.
The like results for DRESLCGASTSCLLPVQVVTEHPL [PCDHGC5] were, in that order, 4.16 ± 0.18 and 4.39 ± 0.27.
Sequence DRLLVERIFAQYMVPHNLETTERM [PDS5B] had a protein stability index (treatment: DMSO) of 2.29 ± 0.31 and a protein stability index (treatment: MLN4924 1 uM, 8 h) of 2.17 ± 0.086.
The like results for DRLRRNWPPSFLSEFRALQFSLML [SPNS1] were, in that order, 2.65 ± 0.6 and 2.31 ± 0.51.
DRPMFMLQCAMEENCLSASAAQTD [LOXL2]: the protein stability index stood at 2.38 ± 0.52 (treatment: DMSO) and 1.94 ± 0.19 (treatment: MLN4924 1 uM, 8 h).
The like results for DRQELTYQELLRVCCCELGVNPDQ [ANKRD40] were, in that order, 3.24 ± 0.24 and 3.34 ± 0.36.
The like results for DSACDESSCIPKAFGNPKFALQGL [IRX6] were, in that order, 3.62 ± 0.24 and 3.6 ± 0.23.
On to DSGQYWPSIYHTMASPCSAMAYHH [WDFY1], for which the protein stability index is 2.34 ± 0.2 (treatment: DMSO) and 2.38 ± 0.13 (treatment: MLN4924 1 uM, 8 h).
Regarding DTLDHIRALDRLQEVPHEGPMCDL [PPP2CA], the protein stability index came out at 4.76 ± 0.24 (treatment: DMSO) and 4.8 ± 0.066 (treatment: MLN4924 1 uM, 8 h).
